# Assay results: IntAct's records for PubMed 25477193
# Columns and labels:
# [1] = target: kap3_human PRKAR2B (UniProt P31323)
# [2] = target: kap3_human PRKAR2B (UniProt P31323); remark: listed apart in the source
substance,measurement,setting,value
cAMP-dependent protein kinase catalytic subunit alpha (Homo sapiens) (from UniProt P17612) L206R,effect of a mutation on the interaction,[1],decreasing interaction strength
same,effect of a mutation on the interaction,[2],disrupting interaction strength
